# From US8936806B2, “Periostin induces proliferation of cardiomyocytes and promotes cardiac regeneration” (Children's Medical Center Corporation, priority 2007, dated 2015)
# “And” between values parts separate entries of the source, which are not always exact repeats. Identical values can stand only once. “Also recorded” adds a separate entry of the source.
# B1: periostin: Recombinant periostin, purified from HEK293 cells expressing the full-length human cDNA; secreted protein of 834 amino acids (Seq ID. No. 1) (protein, listed as Homo sapiens)
# chain: MIPFLPMFSLLLLLIVNPINANNHYDKILAHSRIRGRDQGPNVCALQQILGTKKKYFSTCKNWYKKSICGQKTTVLYECCPGYMRMEGMKGCPAVLPIDHVYGTLGIVGATTTQRYSDASKLREEIEGKGSFTYFAPSNEAWDNLDSDIRRGLESNVNVELLNALHSHMINKRMLTKDLKNGMIIPSMYNNLGLFINHYPNGVVTVNCARIIHGNQIATNGVVHVIDRVLTQIGTSIQDFIEAEDDLSSFRAAAITSDILEALGRDGHFTLFAPTNEAFEKLPRGVLERFMGDKVASEALMKYHILNTLQCSESIMGGAVFETLEGNTIEIGCDGDSITVNGIKMVNKKDIVTNNGVIHLIDQVLIPDSAKQVIELAGKQQTTFTDLVAQLGLASALRPDGEYTLLAPVNNAFSDDTLSMVQRLLKLILQNHILKVKVGLNELYNGQILETIGGKQLRVFVYRTAVCIENSCMEKGSKQGRNGAIHIFREIIKPAEKSLHEKLKQDKRFSTFLSLLEAADLKELLTQPGDWTLFVPTNDAFKGMTSEEKEILIRDKNALQNIILYHLTPGVFIGKGFEPGVTNILKTTQGSKIFLKEVNDTLLVNELKSKESDIMTTNGVIHVVDKLLYPADTPVGNDQLLEILNKLIKYIQIKFVRGSTFKEIPVTVYTTKIITKVVEPKIKVIEGSLQPIIKTEGPTLTKVKIEGEPEFRLIKEGETITEVIHGEPIIKKYTKIIDGVPVEITEKETREERIITGPEIKYTRISTGGGETEETLKKLLQEEVTKVTKFIEGGDGHLFEDEEIKRLLQGDTPVRKLQANKKVQGSRRRLREGRSQ
# Experiments:
# [1] = tested on: primary neonatal rat ventricular cardiomyocytes; assay: Cardiomyocyte apoptosis (TUNEL) and survival
# Method: To determine cardiomyocyte proliferation, primary neonatal rat ventricular cardiomyocytes were quantified by counting with a hemocytometer after 3 days and 6 days of stimulation. To determine cardiomyocyte survival, primary neonatal rat ventricular cardiomyocytes were pre-treated with 500 ng/mL periostin or buffer for 30 min and then exposed to 0.5 μM doxycycline or 100 ng/mL TNFα for 24 hr and quantified by counting. Corresponding samples were stained with an antibody directed against tropomyosin as a cardiomyocyte marker to control for the percentage of differentiated cardiomyocytes. Apoptotic cardiomyocyte nuclei were determined after 24 hr with the In situ Cell Death Detection Kit (Roche, Indianapolis, Ind.) in combination with staining for troponin I.
# [2] = tested on: primary adult rat ventricular cardiomyocytes; assay: Cytokinesis (aurora B kinase) in primary adult rat ventricular cardiomyocytes; assay type: cell-based
# From the text: Primary neonatal rat ventricular cardiomyocytes were isolated using the Neomyts kit (Cellutron, Highland Park, N.J.), seeded at a density of 10^5 cells/cm^2 onto gelatin-coated cover slips, stimulated for 3 days, and labeled with BrdU for the terminal 2 days. Primary adult ventricular cardiomyocytes were isolated from male (300 gm) Wistar rats (Charles River Laboratories) and maintained as described (Engel, F. B. et al. p38 MAP kinase inhibition enables proliferation of adult mammalian cardiomyocytes. Genes Dev 19, 1175-87 (2005)). Adult cardiomyocytes were stimulated daily for 9 days and labeled with 30 μM BrdU for the terminal 3 days. Cardiomyocytes were stimulated with periostin (500 ng/mL) and FGF (100 ng/mL). Inhibiting antibodies were added at a concentration of 10 μg/mL, cRGD at 10 μM, U0126 at 10 μM, PD98059 at 1 μM, LY294002 at 10 μM, and Wortmannin at 0.1 μM 30 min prior to stimulation. The vehicle used to dissolve factors or chemicals was added to unstimulated samples, which were then processed together with the test samples.
# DNA-synthesis was analyzed by visualization of BrdU uptake and cytokinesis was determined by detection of the cleavage furrow and the midbody with an antibody against aurora B kinase as described (Engel, F. B. et al. p38 MAP kinase inhibition enables proliferation of adult mammalian cardiomyocytes. Genes Dev 19, 1175-87 (2005)). Signals were visualized with secondary antibodies conjugated to Alexa 488, Alexa 546, Alexa 594, and Alexa 647 (Invitrogen). Nuclei were visualized with 4′,6′-diamidino-2-phenylindole (DAPI, Invitrogen). For image acquisition, the value for γ was set at 1 and the lookup table settings were linear.
# [3] = tested on: Adult male Sprague-Dawley rats; assay: Rat model of myocardial infarction: analysis of myocardial regeneration (histology, immunofluorescence); assay type: in vivo
# Method: Horizontal cryosections of 14 μm thickness spaced at 1 mm intervals were analyzed. To determine infarct size, Masson's Trichrome-stained sections were analyzed at 1× magnification. The infarct border zone was defined as myocardial tissue within 0.5 mm of the fibrous scar tissue. Fibrosis and cardiomyocyte cross-sectional area were determined after staining with Masson's Trichrome at 10× and 40× magnification, respectively, and quantified using the Metamorph software package. BrdU-positive cardiac fibroblast nuclei were determined at 5 cross-sections per heart at the level of the myocardial infarction. Cardiomyocyte nuclei were counted using the optical dissector method (Howard, C. V. & Reed, M. Unbiased Stereology: Three-Dimensional Measurement In Microscopy, (BIOS Scientific Publishers, Oxford, 2005)) on troponin T and DAPI-stained sections in 32-60 random sample volumes of […] per heart. BrdU-positive cardiomyocyte nuclei were quantified on 16-20 sections per heart. […] Adult male Sprague-Dawley rats (300 gm, Charles River Laboratories) underwent experimental myocardial infarction as described (del Monte, F. et al. Abrogation of ventricular arrhythmias in a model of ischemia and reperfusion by targeting myocardial calcium cycling. Proc Natl Acad Sci USA 101, 5622-7 (2004)). The survival rate was 67%. Gelfoam loaded with 100 μg of recombinant periostin or with buffer were applied over the myocardial infarction at the time of surgery. […] Echocardiography and hemodynamic catheterization were performed as described (Prunier, F. et al. Am J Physiol Heart Circ Physiol (2006)). Horizontal cryosections of 14 μm thickness spaced at 1 mm intervals were analyzed. Masson's Trichrome-stained sections were analyzed at 10× magnification to determine infarct size (Pasumarthi, K. B., et al. Circ Res 96, 110-8 (2005)), defined as [coronal infarct perimeter (epicardial+endocardial)/total coronal perimeter (epicardial+endocardial)]×100 and thinning index (Engel, F. B., et al. Proc Natl Acad Sci USA 103, 15546-51 (2006)), defined as minimal infarct wall thickness/maximal septal wall thickness. The infarct border zone was defined as myocardial tissue within 0.5 mm of the fibrous scar tissue. Fibrosis was determined on 10× images of Masson's Trichrome stainings and quantified using the Metamorph software package (Molecular Devices Corp.). Cardiomyocyte cross-sectional area was determined after staining with Masson's Trichrome at 40× magnification and quantified using the Metamorph software package. BrdU-positive cardiac fibroblast nuclei were determined at 5 cross-sections per heart at the level of the myocardial infarction. Cardiomyocyte nuclei were counted on troponin T and DAPI-stained sections in 32-60 random sample volumes of 84,500 μm^3 per heart. BrdU-positive cardiomyocyte nuclei were quantified on 16-20 sections per heart. Capillaries and stem cells were detected with antibodies against von Willebrand factor (vWF) and c-kit, respectively, and quantified at 5 cross-sections per heart at the level of the myocardial infarction.
# [4] = 1 week, infarct and border zone
molecule,measurement,setting,value
B1,cardiomyocyte survival,"[1]; 500 ng/mL pre-treatment, then doxorubicin or TNF-α 24 hr",not affected
same,doxorubicin or TNF-α-induced cardiomyocyte death,[1]; FIG. 2L,did not reduce
same,baseline and induced cardiomyocyte apoptosis,"[1]; TUNEL, 24 hr",not affected
same,"cytokinesis, of all differentiated cardiomyocytes",[2]; 9 days stimulation,0.5±0.2%
same,BrdU-labeled nuclei in cardiomyocyte cytokineses,[2]; N=15,100%
same,first detection of cytokinesis,[2]; time-course of stimulation,≥ 6 days
same,number of c-kit-positive cells in infarct and border zone vs control,[3]; 1 and 12 weeks,did not differ
same,"mitosis (H3P), of cardiomyocyte nuclei",[3]; 1 week,0.1±0.01%
same,infarct size vs control,[3]; 1 week after MI,same infarct size
same,number of BrdU-positive cardiac fibroblasts,[3]; 1 week after MI,decreased
same,number of cardiomyocyte nuclei vs control,[3]; 1 week after MI,same number of nuclei
same,proportion of cycling cardiomyocytes vs proportion of apoptotic cardiomyocytes,[3]; 1 week after MI,five-fold higher
same,arteriolar density vs control,[3]; [4],did not differ
same,capillary density vs control,[3]; [4],did not differ
same,"mitosis (H3P), of cardiomyocyte nuclei",[3]; 12 weeks,0.2±0.5%
same,fibrotic tissue,[3]; 12 weeks after MI,significantly decreased
same,heart weight vs buffer-treated rats,[3]; 12 weeks after MI,similar
same,increase in arteriolar density compared with control hearts,[3]; 12 weeks after MI,1.5 fold
same,increase in capillary density compared with control hearts,[3]; 12 weeks after MI,4 fold
same,infarct size smaller compared with control hearts,[3]; 12 weeks after MI,50%
same,left ventricular free wall thickness vs control,[3]; 12 weeks after MI,thicker
same,more cardiomyocyte nuclei than control hearts,[3]; 12 weeks after MI,6.2×10^6
same,proportion of cycling cardiomyocytes vs proportion of apoptotic cardiomyocytes,[3]; 12 weeks after MI,100 fold
same,scar volume vs control,[3]; 12 weeks after MI,smaller scar volume
same,septum thickness vs control,[3]; 12 weeks after MI,thinner
same,thinning index,[3]; 12 weeks after MI,improved thinning index
same,increased capillary density compared with control animals,"[3]; FIG. 11A, time not given, legend b80: one week",4 fold
same,number of stem cells (c-kit) vs buffer treated hearts,[3]; FIG. 11B,similar
same,calculated new cardiomyocyte nuclei from BrdU rate,[3]; after 12 weeks,7.2×10^6 per heart
same,cross-sectional cardiomyocyte area vs control,[3]; after MI,smaller
same,increase of DNA synthesis compared with buffer-treated animals,[3]; after MI,10 fold
same,left ventricular cardiomyocyte nuclei,[3]; after MI (FIG. 9i),18.8 million
same,cardiomyocyte apoptosis vs control,"[3]; after MI, 1 and 12 weeks",without changing the rate of apoptosis; also recorded: without affecting apoptosis; also recorded: similar
same,"DNA synthesis, cardiomyocytes per heart","[3]; after MI, 3 BrdU injections","5,268±402 per heart"
same,"BrdU uptake, of cardiomyocytes","[3]; infarct and border zone, 1 week",0.6±0.07%
same,"BrdU uptake, of cardiomyocytes","[3]; infarct and border zone, 12 weeks",1±0.3%
same,calculated cardiomyocyte nuclei generated from rate of mitosis,[3]; over 12 weeks,5.5×10^6
same,cardiomyocyte mitoses (metaphase chromosomes),"[3]; periostin-treated hearts, n=6","4,737±770"
same,"cell-cycle reentry, of all cardiomyocytes in the infarct border zone","[3]; rat, in vivo",0.6-1%
same,rate of cardiomyocytes entering the cell cycle,"[3]; rat, in vivo","3,727 per hour"
same,cell-cycle reentry of differentiated cardiomyocytes,"[3]; single injection of BrdU, labeling for 6.4 h, n=3","23,852±1,709 per heart"
same,BrdU-labeled cardiomyocytes / cell cycle re-entry in the infarct border zone,[3]; three injections of BrdU,1.4% and 1.4±0.5%
